How the values were obtained:
[1] = target: T1, hPD-1-Fc (human, UniProt Q15116 25-167); assay: SPR, Exp. 1
T1 construct: domain: IgV domain; also called human PD-1-Fc; not shown: human IgG1 Fc

[2] = target: T2, hPD-1-his (human, UniProt Q15116 25-167); assay: SPR, Exp. 1
T2 construct: domain: IgV domain; monomer in solution; biotin-labelled where captured by streptavidin; also called biotin-hPD-1-his

[3] = target: T1, hPD-1-Fc; assay: SPR, Exp. 2
[4] = target: T2, hPD-1-his; assay: SPR, Exp. 2
[5] = target: T1, hPD-1-Fc; assay: SPR, Exp. 3
[6] = target: T2, hPD-1-his; assay: SPR, Exp. 3
[7] = target: T2, hPD-1-his; assay: SPR, Exp. 4
[8] = target: T1, hPD-1-Fc; assay: ELISA, hPD1-Fc coated
[9] = target: T1, hPD-1-Fc; assay: ELISA, PD-1-Fc coated
[10] = target: T3, human PD-1 expressed on cells (human, UniProt Q15116 25-288); assay: cell-based or functional assay
T3 sequence (Q15116 25-288): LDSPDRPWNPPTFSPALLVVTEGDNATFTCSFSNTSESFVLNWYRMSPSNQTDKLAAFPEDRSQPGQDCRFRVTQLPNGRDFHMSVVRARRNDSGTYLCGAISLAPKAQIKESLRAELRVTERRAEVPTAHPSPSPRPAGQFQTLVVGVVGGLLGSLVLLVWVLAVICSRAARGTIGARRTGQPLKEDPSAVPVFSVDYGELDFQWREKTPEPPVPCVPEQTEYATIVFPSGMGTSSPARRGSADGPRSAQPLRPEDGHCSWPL

[11] = target: T2, hPD-1-his; assay: ELISA, PD-1-his on anti-his
[12] = target: T1, hPD-1-Fc; assay: SPR, range over experiments
[13] = target: T2, hPD-1-his; assay: ELISA, hPD-1-his on anti-his
[14] = target: T1, hPD-1-Fc; assay: blocking ELISA, PD-1 to PD-L1
[15] = target: T1, hPD-1-Fc; assay: blocking ELISA, PD-1 to PD-L2
[16] = target: T3, human PD-1 expressed on cells; assay: flow cytometry, hPD1-293 cells
[17] = target: T3, human PD-1 expressed on cells; assay: flow cytometry, hPD-1-293 cells
[18] = target: T3, human PD-1 expressed on cells; assay: flow cytometry, hPD1-Jurkat cells
[19] = target: T3, human PD-1 expressed on cells; assay: flow cytometry, hPD-1-Jurkat cells
[20] = target: T1, hPD-1-Fc; assay: blocking ELISA, hPD-1-Fc to hPD-L1-Fc
[21] = target: T1, hPD-1-Fc; assay: SPR Biacore T200, PD-1-Fc immobilised
[22] = target: T2, hPD-1-his; assay: SPR Biacore T200, PD-1-his immobilised
[23] = target: T2, hPD-1-his; assay: ELISA, biotin-PD-1-his on streptavidin
[24] = target: T2, hPD-1-his; assay: ELISA, biotin-hPD-1-his on streptavidin
[25] = target: T3, human PD-1 expressed on cells; assay: flow cytometry, activated PBMC donor FA
[26] = target: T3, human PD-1 expressed on cells; assay: flow cytometry, activated PBMC donor two
[27] = target: T3, human PD-1 expressed on cells; assay: flow cytometry, SEB-activated PBMC donor
[28] = target: T3, human PD-1 expressed on cells; assay: flow cytometry, SEB-activated PBMC donor two
[29] = target: T4, hPD1 (soluble, ELISA of Example 20) (human, UniProt Q15116 25-167, limits assumed); assay: ELISA, hPD1
T4 sequence (Q15116 25-167 limits assumed): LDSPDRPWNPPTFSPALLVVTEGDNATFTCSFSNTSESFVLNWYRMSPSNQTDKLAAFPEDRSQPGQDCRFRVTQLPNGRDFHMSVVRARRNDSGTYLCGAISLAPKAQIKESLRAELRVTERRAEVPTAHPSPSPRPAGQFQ

[30] = target: T5, mPD1 (soluble, ELISA of Examples 20 and 24) (mouse, UniProt Q02242 25-167, limits assumed); assay: ELISA, mPD1
T5 construct: also called Biotin-mPD1
T5 sequence (looked up): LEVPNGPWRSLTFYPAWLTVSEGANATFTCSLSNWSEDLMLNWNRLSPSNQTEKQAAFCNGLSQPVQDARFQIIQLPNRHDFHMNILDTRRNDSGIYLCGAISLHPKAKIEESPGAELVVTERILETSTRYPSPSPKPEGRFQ

[31] = target: T6, mPD-1-Fc (mouse; human, UniProt Q02242 25-167, limits assumed); assay: ELISA, mPD-1-Fc
T6 construct: domain: IgV domain; not shown: human IgG1 Fc
T6 sequence (looked up): T5 sequence (looked up)

[32] = target: T7, mouse PD-1 expressed on cells (mouse, UniProt Q02242 25-288); assay: cell-based or functional assay
T7 sequence (looked up): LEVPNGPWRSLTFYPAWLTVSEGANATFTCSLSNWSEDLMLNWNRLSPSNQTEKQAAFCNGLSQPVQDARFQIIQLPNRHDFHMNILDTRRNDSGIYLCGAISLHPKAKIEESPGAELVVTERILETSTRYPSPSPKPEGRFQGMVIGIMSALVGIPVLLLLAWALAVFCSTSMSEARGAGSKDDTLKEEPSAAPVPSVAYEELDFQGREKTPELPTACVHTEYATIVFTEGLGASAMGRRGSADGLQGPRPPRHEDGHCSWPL

[33] = target: T1, hPD-1-Fc; assay: SPR Biacore, hPD1-Fc
[34] = target: T6, mPD-1-Fc; assay: SPR Biacore, mPD1-Fc
[35] = target: T8, mPD-1-his (mouse, UniProt Q02242 25-167, limits assumed); assay: SPR Biacore, mPD1-his
T8 construct: domain: IgV domain
T8 sequence: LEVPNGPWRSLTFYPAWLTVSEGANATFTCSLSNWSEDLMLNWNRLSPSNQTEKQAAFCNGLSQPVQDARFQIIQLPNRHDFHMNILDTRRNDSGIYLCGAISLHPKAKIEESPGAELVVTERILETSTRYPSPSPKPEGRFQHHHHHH

[36] = target: T7, mouse PD-1 expressed on cells; assay: cell-based or functional assay; remark: listed apart in the source
[37] = target: T4, hPD1 (soluble, ELISA of Example 20); assay: blocking ELISA, hPD1 to hPDL1
[38] = target: T5, mPD1 (soluble, ELISA of Examples 20 and …); assay: blocking ELISA, mPD1 to mPDL1
[39] = target: T6, mPD-1-Fc; assay: blocking ELISA, mPD-1 to PD-L1
[40] = target: T7, mouse PD-1 expressed on cells; assay: flow cytometry, mPD1-293 cells
[41] = target: T7, mouse PD-1 expressed on cells; assay: flow cytometry, mPD1-eff cells
[42] = target: T6, mPD-1-Fc; assay: ELISA, mPD-1-Fc on streptavidin
[43] = target: T7, mouse PD-1 expressed on cells; assay: flow cytometry, mPD-1-293 cells
[44] = target: T8, mPD-1-his; assay: ELISA, mPD-1-his on streptavidin
[45] = target: T5, mPD1 (soluble, ELISA of Examples 20 and …); assay: ELISA, biotin-mPD1 on streptavidin
[46] = target: T1, hPD-1-Fc; assay: SPR Biacore, hPD1-Fc (second m3A7 row)
[47] = target: T6, mPD-1-Fc; assay: SPR Biacore, mPD1-Fc (second m3A7 row)
[48] = target: T8, mPD-1-his; assay: SPR Biacore, mPD1-his (second m3A7 row)

T2 sequence (Q15116 other isoform, or with tags, fused parts or gaps limits assumed): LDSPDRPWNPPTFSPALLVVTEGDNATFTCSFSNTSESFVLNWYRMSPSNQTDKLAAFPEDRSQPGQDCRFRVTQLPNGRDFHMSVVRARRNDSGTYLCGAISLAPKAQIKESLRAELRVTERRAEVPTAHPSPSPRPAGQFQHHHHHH
T1 sequence (Q15116 25-167 limits assumed): as the sequence (Q15116 25-167 limits assumed) above

B1: 33C4 (antibody, V domains shown)
VH: QVQLVQSGAEVKKPGSSVKVSCKASGGTFSSSVISWVRQAPGQGLEWMGGIIPIFGTANYAQKFQGRVTITADESTSTAYMELSSLRSEDTAVYYCAREGLGCSGGSCYSGYYYGMDVWGQGTTVTVSS
VL: DIVMTQSPLSLPVTPGEPASISCRSSQSLLHSNGYNYLDWYLQKPGQSPQLLIYEASSLHTGVPDRFSGSGSGTDFTLKISRVEAEDVGVYYCMQGSHWPYTFGQGTKLEIK
notes: also called 780_39
- Kd [1]: < 22 pM
- Kd [2]: 704 pM
- Kd [3]: < 10 pM
- Kd [4]: 205 pM
- Kd [5]: < 10 pM
- Kd [6]: 274 pM
- Kd [7]: < 54 pM
- EC50 [8]: 177 pM
- OD450 at 10 nM [8]: 0.925 OD450
- EC50 [9]: 128 pM
- EC50, Promega blockade bioassay [10]: 0.165 µg/mL
- Fold induction [10]: 6.24 fold
- EC50 [11]: 142 pM
- Kd [12]: 10 to 20 pM
- EC50 [13]: 61 pM
- OD450 at 10 nM [13]: 0.578 OD450
- IC50 [14]: 2770 pM
- Inhibition % at 50 nM [14]: 93.3%
- Inhibition, % at 5.56 nM [14]: 88.9%
- IC50 [15]: 3300 pM
- Inhibition, % at 3.7 nM [15]: 53.4%
- Inhibition, % at 100 nM [15]: 94.6%
- EC50 [16]: 75 pM
- MFI at 5 nM [16]: 48.2 MFI
- MFI, 5 nM [17]: 179 MFI
- EC50 [18]: 84 pM
- MFI at 5 nM [18]: 98.3 MFI
- MFI, 5 nM [19]: 65.2 MFI
- IC50 [20]: 2060 pM
- Inhibition % at 5.6 nM [20]: 91.2%
- Inhibition % at 50 nM [20]: 92.5%
- Kd [21]: 575 pM
- Kd [22]: 6730 pM
- EC50 [23]: 131 pM
- EC50 [24]: 209 pM
- OD450 at 10 nM [24]: 0.95 OD450
- EC50 [25]: 41 pM
- MFI at 25 nM [25]: 17.6 MFI
- EC50 [26]: 50 pM
- MFI at 25 nM [26]: 18.7 MFI
- MFI, 5 nM [27]: 77.8 MFI
- MFI, 5 nM [28]: 66.9 MFI

B2: m3A7 (antibody, V domains shown)
VH: QVQLVQSGAEVKKPGASVKVSCKASGHTFTSYYIHWVRQAPGQGLEWMGIINPSGGSTSYAQKFQGRVTMTRDTSTSTVYMELSSLRSEDTAVYYCARDRAYGGAGDYWGQGTLVTVSS
VL: DIQMTQSPSSLSASVGDRVTITCRASRSISNWLAWYQQKPGKAPKLLIYAASSLQSGVPSRFSGSGSGTDFTLTISSLQPEDFATYYCQQSYSAPVTFGQGTKVEIK
notes: R3A9 derivative; also called 7115C
- EC50 [29]: 630 pM
- EC50 [30]: 350 pM
- EC50 [31]: 834 pM
- IC50, Promega blockade bioassay [32]: 562 pM
- Kd [33]: 103000 pM
- koff [33]: 0.0176 s⁻¹
- kon [33]: 171000 M⁻¹ s⁻¹
- Kd [34]: 2530 pM
- koff [34]: 0.000659 s⁻¹
- kon [34]: 261000 M⁻¹ s⁻¹
- Kd [35]: 3030 pM
- koff [35]: 0.000823 s⁻¹
- kon [35]: 272000 M⁻¹ s⁻¹
- IC 50, Promega assay [36]: 0.0709 µg/mL
- IC50 [37]: 37800 pM
- IC50 [38]: 537 pM
- IC50 [39]: 102 pM
- EC50 [40]: 609 pM
- EC50 [41]: 270 pM
- EC50 [42]: 187 pM
- EC50 [43]: 228 pM
- EC50 [44]: 251 pM
- EC50 [45]: 268 pM
- Kd [46]: 19900 pM
- koff [46]: 0.00263 s⁻¹
- kon [46]: 132000 M⁻¹ s⁻¹
- Kd [47]: 1860 pM
- koff [47]: 0.000406 s⁻¹
- kon [47]: 219000 M⁻¹ s⁻¹
- Kd [48]: 1980 pM
- koff [48]: 0.000479 s⁻¹
- kon [48]: 241000 M⁻¹ s⁻¹

B3: RMP1-14 (antibody, V domains shown)
VH: EVQLQESGPGLVKPSQSLSLTCSVTGYSITSSYRWNWIRKFPGNRLEWMGYINSAGISNYNPSLKRRISITRDTSKNQFFLQVNSVTTEDAATYYCARSDNMGTTPFTYWGQGTLVTVSS
VL: DIVMTQGTLPNPVPSGESVSITCRSSKSLLYSDGKTYLNWYLQRPGQSPQLLIYWMSTRASGVSDRFSGSGSGTDFTLKISGVEAEDVGIYYCQQGLEFPTFGGGTKLELK
- IC50 [39]: 635 pM

— patent US20230416363A1 (KADMON, published 2023)
